Molecular target: HIV-1 capsid A14C/E45C/W184A/M185A (HIV-CA) (HIV-1)
Experiment: SEC

## HIV-1 capsid A14C/E45C/W184A/M185A (HIV-CA) (natural protein)
  stoichiometry N: 6

Source: doi:10.1101/2023.12.01.569544
